Source: the Immune Epitope Database (IEDB)

Target: HLA-A*02:01
Test: IEDB peptide-MHC binding, purified MHC/direct/fluorescence; filed as Kd, often an IC50 or EC50 that approximates it; ≥ and ≤ were set here for values at or beyond the usual limits of such assays
Conditions: source organism: Human immunodeficiency virus 1

SLYNTIAIL
Kd: 0.5 µM

SLYNAVVTL
Kd: 0.01 µM

SLFNTVVTL
Kd: 0.032 µM

SLYNTVVTL
Kd: 0.02 µM

SLYNTVSTL
Kd: 0.181 µM

SLYNAVATL
Kd: 0.045 µM

SLFNAVVTL
Kd: 0.01 µM

SLYNTITVL
Kd: 0.088 µM

SVYNTVATL
Kd: 0.283 µM

SLFNTVATV
Kd: 0.025 µM

SLYNLVAVL
Kd: 0.724 µM

SLYNTISVL
Kd: 0.061 µM
